Test results from the supplement of paper PMC9732359.
± gives the uncertainty stated by the source.

test: protein stability index of a GFP-peptide fusion (yeast GPS) (PSI 1-4); higher = more stable; sorted into four equal gates, so the index is relative within each strain; settings: pdr5∆
How it was run: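 Plasmids isolated from each sorting gate were PCR-amplified and Illumina-sequenced, and barcodes assigned the reads to strains. The gates, four of equal size, were set by GFP/Cherry fluorescence ratio on mid-log cultures in leucine-free medium. These cultures were yeast carrying a pooled library of tiled 17-residue yeast protein peptides fused downstream of GFP on a plasmid that also expresses Cherry. The protein stability index is the sum of every gate's read frequency times its gate number.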

Row | Sequence | protein stability index
1 | DQNEFLLERTREIHNEA [FAS2] | 3.13 ± 0.08
2 | DQRDELLEQKKSIINSQ [ITC1] | 3.1 ± 0.075
3 | DQSIASGNTNGAGSAFG [YOR098C/NUP1] | 2.49 ± 0.06
4 | DQVLVKGGEQISQLYSD [YJL041W/NSP1] | 3.16 ± 0.082
5 | DRELNEVINQMERLDGD [SMC3] | 3.29 ± 0.083
6 | DRLILDLKLPPMDAYLK [SNU114] | 3.34 ± 0.11
7 | DRLSLQDRQQLLPLVVS [ECM29] | 2.06 ± 0.044
8 | DRNLTEFDSTDTSLCIN [RRI1] | 3 ± 0.12
9 | DRREKAERTMSKKETKL [SMC2] | 3.36 ± 0.092
10 | DSFSGAKIYPGRGTLFV [RPL24A] | 3.08 ± 0.067
11 | DSIYTKPVKVALIFIFF [YJL039C/NUP192] | 1.68 ± 0.033
12 | DSKGSLYSVKFAPAHLG [YGL100W/SEH1] | 3.05 ± 0.13
13 | DSPFSLICQNNLNAFVD [SRP72] | 3 ± 0.055
14 | DSSAHFKGALTIKILPE [YMR129W/POM152] | 2.62 ± 0.064
15 | DSVATVIEVIETKWDDA [YJR042W/NUP85] | 2.64 ± 0.28
16 | DSVEFIFQAKRNSNPEN [RPN10] | 2.73 ± 0.089
17 | DSVLQLASFEKTTDHLF [RPO31] | 2.64 ± 0.04
18 | DTEMKMKSLLTELSNKE [YIL149C/MLP2] | 3.44 ± 0.058
19 | DTFELIKTFLVDLTSSN [YDL116W/NUP84] | 3.19 ± 0.073
20 | DTGTLDTKSVVGLVMFS [RPN2] | 2.66 ± 0.084
21 | DTKKVKESPANDQASNE [YIL149C/MLP2] | 3.29 ± 0.1
22 | DTSKALLNVSVNITKFS [SKI6] | 2.57 ± 0.068
23 | DTTVNDCLDKLLNDECT [SNF2] | 3.46 ± 0.1
24 | DVAIENNTLSRYADAGN [RRP43] | 3.32 ± 0.048
25 | DVAYLLKSESATSQYLK [YGL172W/NUP49] | 3.21 ± 0.094
26 | DVFDTLATYCPRVQGFY [GRR1] | 2.26 ± 0.054

Row | Sequence | protein stability index
27 | DVHLLESKVYHKLRNLA [RPN6] | 2.33 ± 0.086
28 | DVILDYQTKKFYDYIKE [REC8] | 2.58 ± 0.052
29 | DVKLLHSQFMKDLKDDS [YJL039C/NUP192] | 2.85 ± 0.091
30 | DVKVSISHDDLQAVAVA [FAS2] | 2.6 ± 0.055
31 | DVNALKFNNTQRESQIG [SNF12] | 2.75 ± 0.067
32 | DVNIVNRRLVYSRILKS [YCG1] | 1.16 ± 0.079
33 | DVSVKMGNTKVHCRISC [RRP45] | 2.28 ± 0.092
34 | DVVAHRQLAGAIGYEPL [DIS3] | 2.43 ± 0.075
35 | DVYASKVRLNASEREEL [PRP8] | 2.22 ± 0.061
36 | DWGQALRLLLLLIEFPY [YJR042W/NUP85] | 1.29 ± 0.049
37 | DYINELSNSNRFELHGD [REC8] | 3.08 ± 0.11
38 | DYSINSRYEPKVFDCGD [PRE7] | 2.59 ± 0.053
39 | EAAAAEEGEEEEVKEEV [RPS0B] | 3.48 ± 0.049
40 | EAELSSTKVENSAIIQN [YIL149C/MLP2] | 2.87 ± 0.069
41 | EAGASAELDDCRGVSEN [RPO21] | 3.54 ± 0.15
42 | EAGLQLCRQGHNMLNLL [PRP8] | 2.29 ± 0.12
43 | EAHNKALNQFKRKLLEH [RPT4] | 3.14 ± 0.17
44 | EAIRDPKNSSSPVQIAF [SSN8] | 2.96 ± 0.15
45 | EALLVVLVSSVTEANII [RPS12] | 1.15 ± 0.14
46 | EALNLLKFFLVDENETV [LIN1] | 1.52 ± 0.043
47 | EALVERRRAFKRSQKKH [RPB4] | 3.2 ± 0.081
48 | EAMLRENIEVILSNGRM [SNF12] | 2.82 ± 0.061
49 | EAMMLKEEGLQQFNLHE [MED1] | 3.26 ± 0.15
50 | EAVDDVFQAKMMDMLKQ [RPN11] | 2.58 ± 0.058
51 | ECPAIPIFNYIFTEKIY [YJL039C/NUP192] | 1.46 ± 0.038
52 | EDARRNPNPSSQRAQVV [RPC37] | 3.26 ± 0.064

Row | Sequence | protein stability index
53 | EDCDLVIMALMLMSKIG [POP5] | 1.89 ± 0.053
54 | EDDNNNVEKPSSKPAFN [YLR335W/NUP2] | 3.2 ± 0.071
55 | EDGPRPFKVFLDIGLQR [RPL5] | 3.17 ± 0.058
56 | EDGTFSVLYPDELEDDT [RRP43] | 3.1 ± 0.077
57 | EDHVEDHRKRKKSKIQL [LIN1] | 3.25 ± 0.082
58 | EDISKATHLPKDNVEHL [RPN9] | 3.13 ± 0.076
59 | EDKQNIEINEDNSQDDQ [RRI2] | 3.25 ± 0.066
60 | EDNAGVIANPKGEMKGS [RPL23A] | 1.92 ± 0.056
61 | EDNNDAVNSIMALKFVS [ECM29] | 3.3 ± 0.077
62 | EDNYNPKMQWSLQDNSA [RPN4] | 3.3 ± 0.13
63 | EDVLSSFYRVEKIKKIN [SSN2] | 1.13 ± 0.074
64 | EDYELSPQAVSSFVRQE [PRE1] | 2.42 ± 0.15
65 | EEAKSVLPAATKKKSKF [ARP9] | 2.25 ± 0.043
66 | EECGRTIHRSFTICLND [CSN12] | 2.87 ± 0.065
67 | EEELFEVTKEEDIIANY [RRP43] | 3.08 ± 0.073
68 | EEELWNSPSKGNSERPS [YIL149C/MLP2] | 3.38 ± 0.083
69 | EEERRKKRESGVEEEEE [SNF2] | 3.35 ± 0.1
70 | EEIRSQIDHFKSMLSKP [SWI3] | 2.32 ± 0.065
71 | EEIVVVASADYESQTFS [PRP8] | 3.5 ± 0.095
72 | EEKEKEQSKEVGDVVGG [BRN1] | 3.52 ± 0.1
73 | EEKKKEHEEKEKERETN [RPN2] | 3.37 ± 0.1
74 | EEKSNEVKTPKIPLFTF [SIR4] | 2.94 ± 0.065
75 | EEKVIERAAQKLRLDQL [ISW2] | 2.89 ± 0.14
76 | EESLTVLNCLRTMYFIL [YJR042W/NUP85] | 1.83 ± 0.081
77 | EEVEDQINPTRETNDDI [SNF2] | 1.74 ± 0.082
78 | EEVQQAQTEIKLFNKWS [RPS5] | 3.21 ± 0.096

Row | Sequence | protein stability index
79 | EEYARRLAEFKRRKLDL [SMC4] | 3.46 ± 0.12
80 | EFEIPVSFNGFKLPKKF [BRR2] | 2.94 ± 0.12
81 | EFENKFQNSYKPALKVS [YMR129W/POM152] | 3.11 ± 0.22
82 | EFETPTFLVSNDDEVSQ [RPN14] | 2.89 ± 0.084
83 | EFFVQVLTHESLHRQQQ [DLS1] | 2.91 ± 0.14
84 | EFKIEQNNEQNPIDPFN [YDL116W/NUP84] | 3.11 ± 0.087
85 | EFNFTNLQAKPLVGKPK [YAR002W/NUP60] | 2.35 ± 0.055
86 | EFNSIDRVIFRVPIRSE [PRP8] | 3.33 ± 0.097
87 | EFQPSGNVTELYGTAIG [PRE5] | 2.8 ± 0.07
88 | EFSEHTFVERLPNETIN [DIS3] | 2.47 ± 0.18
89 | EGHLAEIRAKEYKTSSD [SRB2] | 3.29 ± 0.081
90 | EGLIRLDNLTEDPNSAA [DIS3] | 3.31 ± 0.061
91 | EGQENNYNSTSRSTEKK [SIR4] | 3.26 ± 0.13
92 | EGYQNDINTIKLQLSFV [SRP72] | 2.73 ± 0.088
93 | EHAKWGPAAAIEFEYDP [RPB3] | 3.01 ± 0.074
94 | EHIKQDYVASLNELYQT [NSL1] | 3.1 ± 0.057
95 | EHKPVSPDKIGTFTADY [SSN2] | 3.15 ± 0.051
96 | EIEELKSSIQNLNELES [SMC3] | 2.06 ± 0.17
97 | EIEQVCKQVHDKLTSIQ [MED7] | 3.23 ± 0.04
98 | EIHPITFPPEVLARISP [RRP43] | 2.57 ± 0.054
99 | EIIPLQDYYIIGANIYQ [MED6] | 3.07 ± 0.052
100 | EIITSLSMRFQRETSGM [SRB8] | 2.28 ± 0.18
101 | EIKKVTQIVAKFPETSY [SIN4] | 3.02 ± 0.11
102 | EILYYQIKTLPEQYSDI [AAR2] | 3.14 ± 0.084

same assay, conditions: san1∆

Row | Sequence | protein stability index
103 | DPRHIQLLGDVMTYKGE [RPO31] | 2.79 ± 0.063
